The values that follow come from US20250313629A1.

The assay deals with cynomolgus Lag3 on cells (HEK293F cells transiently transfected with cyno-LAG-3; activated cynomolgus PBMC/T cells) (cynomolgus). Put plainly: flow cytometry on CD3/CD28-activated cynomolgus PBMC, antibody at 10 ug/ml. For orientation: A flow cytometer gives signals particle by particle.

With DP47 (human isotype) (antibody), the percentage of Lag3 positive cells was found to be 9.19%.
